# Measured values published in patent US20140274782A1, “AFFINITY REAGENTS AND METHODS FOR DETECTION, PURIFICATION, AND PROTEOMIC ANALYSIS OF METHYLATED PROTEINS” (The Board of Trustees of the Leland Stanford Junior …, priority 2013, published 2014).
# T1: G9a and GLP (Homo sapiens, UniProt Q96KQ7+Q9H9B1)
# T1 sequence (Q96KQ7 2-1210 limits assumed): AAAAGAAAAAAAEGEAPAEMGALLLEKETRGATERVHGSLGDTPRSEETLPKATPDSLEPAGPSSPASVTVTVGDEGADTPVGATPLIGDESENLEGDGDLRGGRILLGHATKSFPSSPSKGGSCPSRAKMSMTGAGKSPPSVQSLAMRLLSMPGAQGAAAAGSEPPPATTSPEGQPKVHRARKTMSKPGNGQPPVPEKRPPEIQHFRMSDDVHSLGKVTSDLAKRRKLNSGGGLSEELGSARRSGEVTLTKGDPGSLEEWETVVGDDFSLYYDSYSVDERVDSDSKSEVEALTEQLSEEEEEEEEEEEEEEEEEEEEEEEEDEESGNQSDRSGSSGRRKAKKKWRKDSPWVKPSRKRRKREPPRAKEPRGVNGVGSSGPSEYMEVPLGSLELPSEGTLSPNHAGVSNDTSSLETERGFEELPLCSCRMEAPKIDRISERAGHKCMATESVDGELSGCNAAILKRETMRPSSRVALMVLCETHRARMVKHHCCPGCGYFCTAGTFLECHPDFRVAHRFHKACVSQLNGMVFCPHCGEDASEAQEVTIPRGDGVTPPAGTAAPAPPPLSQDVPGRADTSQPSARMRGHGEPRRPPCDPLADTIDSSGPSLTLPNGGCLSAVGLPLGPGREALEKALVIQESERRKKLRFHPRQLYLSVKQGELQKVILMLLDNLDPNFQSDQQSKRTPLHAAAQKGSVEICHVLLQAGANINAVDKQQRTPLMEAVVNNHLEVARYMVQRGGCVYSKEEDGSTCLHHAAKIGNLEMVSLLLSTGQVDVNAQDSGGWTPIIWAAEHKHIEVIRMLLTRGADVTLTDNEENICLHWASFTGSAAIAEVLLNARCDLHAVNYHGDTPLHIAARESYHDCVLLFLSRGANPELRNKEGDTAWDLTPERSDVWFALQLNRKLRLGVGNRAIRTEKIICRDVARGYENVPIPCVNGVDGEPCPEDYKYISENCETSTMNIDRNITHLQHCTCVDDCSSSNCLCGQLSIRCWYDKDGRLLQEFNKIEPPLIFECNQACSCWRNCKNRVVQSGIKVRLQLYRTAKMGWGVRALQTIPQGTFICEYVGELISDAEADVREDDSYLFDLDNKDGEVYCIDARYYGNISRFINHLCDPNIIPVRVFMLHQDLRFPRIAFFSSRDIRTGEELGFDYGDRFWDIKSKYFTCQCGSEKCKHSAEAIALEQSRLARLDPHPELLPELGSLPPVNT
# T1 sequence (Q9H9B1 2-1298 limits assumed): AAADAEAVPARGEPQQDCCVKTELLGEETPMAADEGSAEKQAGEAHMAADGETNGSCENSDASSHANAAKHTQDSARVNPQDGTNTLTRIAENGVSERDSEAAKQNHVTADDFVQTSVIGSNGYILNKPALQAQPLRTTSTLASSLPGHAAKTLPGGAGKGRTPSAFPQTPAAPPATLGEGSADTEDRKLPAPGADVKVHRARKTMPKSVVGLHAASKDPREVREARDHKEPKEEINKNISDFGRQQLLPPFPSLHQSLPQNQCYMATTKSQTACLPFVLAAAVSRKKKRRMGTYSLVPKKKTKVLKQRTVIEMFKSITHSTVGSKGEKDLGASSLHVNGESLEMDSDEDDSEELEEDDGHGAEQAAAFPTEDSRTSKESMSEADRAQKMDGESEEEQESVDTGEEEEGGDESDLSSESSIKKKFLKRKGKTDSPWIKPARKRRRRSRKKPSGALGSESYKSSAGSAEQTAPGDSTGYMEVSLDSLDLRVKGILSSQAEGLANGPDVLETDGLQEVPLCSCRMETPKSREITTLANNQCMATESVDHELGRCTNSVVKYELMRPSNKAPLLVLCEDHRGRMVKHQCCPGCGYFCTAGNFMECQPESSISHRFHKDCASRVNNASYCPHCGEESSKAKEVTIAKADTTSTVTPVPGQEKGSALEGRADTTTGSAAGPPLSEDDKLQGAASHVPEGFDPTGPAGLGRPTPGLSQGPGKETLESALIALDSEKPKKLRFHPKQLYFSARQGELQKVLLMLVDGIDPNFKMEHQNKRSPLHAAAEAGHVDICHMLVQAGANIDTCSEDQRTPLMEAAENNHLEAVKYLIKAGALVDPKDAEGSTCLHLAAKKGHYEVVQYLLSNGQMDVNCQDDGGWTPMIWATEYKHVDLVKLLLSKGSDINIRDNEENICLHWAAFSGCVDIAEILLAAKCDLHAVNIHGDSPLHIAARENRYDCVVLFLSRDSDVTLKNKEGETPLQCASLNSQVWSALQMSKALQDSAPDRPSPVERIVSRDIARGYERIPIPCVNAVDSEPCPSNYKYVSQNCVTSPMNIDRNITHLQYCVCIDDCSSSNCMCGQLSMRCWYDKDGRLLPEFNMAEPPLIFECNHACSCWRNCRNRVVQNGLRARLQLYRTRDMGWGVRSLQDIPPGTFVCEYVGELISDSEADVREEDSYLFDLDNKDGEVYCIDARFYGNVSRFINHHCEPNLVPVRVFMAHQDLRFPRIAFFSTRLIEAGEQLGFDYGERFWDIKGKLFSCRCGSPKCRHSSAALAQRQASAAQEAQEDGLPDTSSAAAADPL
# B1: GSR (protein, UniProt P00390 44-522, looked up)
# Glutathione reductase, …: MACRQEPQPQGPPPAAGAVASYDYLVIGGGSGGLASARRAAELGARAAVVESHKLGGTCVNVGCVPKKVMWNTAVHSEFMHDHADYGFPSCEGKFNWRVIKEKRDAYVSRLNAIYQNNLTKSHIEIIRGHAAFTSDPKPTIEVSGKKYTAPHILIATGGMPSTPHESQIPGASLGITSDGFFQLEELPGRSVIVGAGYIAVEMAGILSALGSKTSLMIRHDKVLRSFDSMISTNCTEELENAGVEVLKFSQVKEVKKTLSGLEVSMVTAVPGRLPVMTMIPDVDCLLWAIGRVPNTKDLSLNKLGIQTDDKGHIIVDEFQNTNVKGIYAVGDVCGKALLTPVAIAAGRKLAHRLFEYKEDSKLDYNNIPTVVFSHPPIGTVGLTEDEAIHKYGIENVKTYSTSFTPMYHAVTKRKTKCVMKMVCANKEEKVVGIHMQGLGCDEMLQGFAVAVKMGATKADFDNTVAIHPTSSEELVTLR
# B2: CBR1 (protein, UniProt P16152 2-277, looked up)
# Carbonyl reductase [NADPH] 1: SSGIHVALVTGGNKGIGLAIVRDLCRLFSGDVVLTARDVTRGQAAVQQLQAEGLSPRFHQLDIDDLQSIRALRDFLRKEYGGLDVLVNNAGIAFKVADPTPFHIQAEVTMKTNFFGTRDVCTELLPLIKPQGRVVNVSSIMSVRALKSCSPELQQKFRSETITEEELVGLMNKFVEDTKKGVHQKEGWPSSAYGVTKIGVTVLSRIHARKLSEQRKGDKILLNACCPGWVRTDMAGPKATKSPEEGAETPVYLALLPPDAEGPHGQFVSEKRVEQW
# B3: PRPF38B (protein, UniProt Q5VTL8 2-546, looked up)
# Pre-mRNA-splicing factor 38B: ANNSPALTGNSQPQHQAAAAAAQQQQQCGGGGATKPAVSGKQGNVLPLWGNEKTMNLNPMILTNILSSPYFKVQLYELKTYHEVVDEIYFKVTHVEPWEKGSRKTAGQTGMCGGVRGVGTGGIVSTAFCLLYKLFTLKLTRKQVMGLITHTDSPYIRALGFMYIRYTQPPTDLWDWFESFLDDEEDLDVKAGGGCVMTIGEMLRSFLTKLEWFSTLFPRIPVPVQKNIDQQIKTRPRKIKKDGKEGAEEIDRHVERRRSRSPRRSLSPRRSPRRSRSRSHHREGHGSSSFDRELEREKERQRLEREAKEREKERRRSRSIDRGLERRRSRSRERHRSRSRSRDRKGDRRDRDREREKENERGRRRDRDYDKERGNEREKERERSRERSKEQRSRGEVEEKKHKEDKDDRRHRDDKRDSKKEKKHSRSRSRERKHRSRSRSRNAGKRSRSRSKEKSSKHKNESKEKSNKRSRSGSQGRTDSVEKSKKREHSPSKEKSRKRSRSKERSHKRDHSDSKDQSDKHDRRRSQSIEQESQEKQHKNKDETV
# B4: RBM14 (protein, UniProt Q96PK6 1-669, looked up)
# RNA-binding protein 14: MKIFVGNVDGADTTPEELAALFAPYGTVMSCAVMKQFAFVHMRENAGALRAIEALHGHELRPGRALVVEMSRPRPLNTWKIFVGNVSAACTSQELRSLFERRGRVIECDVVKDYAFVHMEKEADAKAAIAQLNGKEVKGKRINVELSTKGQKKGPGLAVQSGDKTKKPGAGDTAFPGTGGFSATFDYQQAFGNSTGGFDGQARQPTPPFFGRDRSPLRRSPPRASYVAPLTAQPATYRAQPSVSLGAAYRAQPSASLGVGYRTQPMTAQAASYRAQPSVSLGAPYRGQLASPSSQSAAASSLGPYGGAQPSASALSSYGGQAAAASSLNSYGAQGSSLASYGNQPSSYGAQAASSYGVRAAASSYNTQGAASSLGSYGAQAASYGAQSAASSLAYGAQAASYNAQPSASYNAQSAPYAAQQAASYSSQPAAYVAQPATAAAYASQPAAYAAQATTPMAGSYGAQPVVQTQLNSYGAQASMGLSGSYGAQSAAAATGSYGAAAAYGAQPSATLAAPYRTQSSASLAASYAAQQHPQAAASYRGQPGNAYDGAGQPSAAYLSMSQGAVANANSTPPPYERTRLSPPRASYDDPYKKAVAMSKRYGSDRRLAELSDYRRLSESQLSFRRSPTKSSLDYRRLPDAHSDYARYSGSYNDYLRAAQMHSGYQRRM
# Test system: 3×MBT domain of L3MBTL1
# Experiment: Triple SILAC pull-down, 3xMBT/3xMBTD355N ratio (cytoplasmic, nuclear and chromatin fractions of 293T cells);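 also: proteins quantified with MaxQuant, requiring at least two unique peptides and quantification in both label directions, normalized to the mean of proteins from a digested loading control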
# Type: binding, human
# Conditions: SILAC ratio, pull-down 3xMBT vs 3xMBTD355N; experiment with UNC0638 in heavy SILAC media
row,Molecule,3xMBT/D355N UNC Heavy [log base 2]
1,B1,2.92
2,B2,1.12
3,B3,2.44
4,B4,0.82

# Same assay, conditions: SILAC ratio, pull-down 3xMBT vs 3xMBTD355N; experiment with UNC0638 in light SILAC media
row,Molecule,3xMBT/D355N UNC Light [log base 2]
1,B1,2.32
2,B2,0.84
3,B3,2.96
4,B4,1.89

# Biological target: T1, G9a and GLP
# Experiment: Triple SILAC pull-down after UNC0638 treatment of 293T cells, DMSO/UNC0638 ratio of protein captured by 3×MBT;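 also: mass spectrometry (Q-Exactive) SILAC quantitation, DMSO/UNC0638 ratio computed after subtracting 3×MBTD355N mutant pull-down background, only proteins with at least twofold 3×MBT over mutant signal considered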
# Type: cell-based
# Parameters: endogenous in cells; host or cells: HEK 293T
# Conditions: SILAC ratio DMSO/UNC0638 of protein pulled down with 3xMBT; UNC0638 in heavy SILAC media
row,Relative to UNC0638 UNC Heavy [log base 2],Molecule
1,0.24,B1
2,−0.09,B2
3,−0.03,B3
4,0.06,B4

# Same assay, conditions: SILAC ratio DMSO/UNC0638 of protein pulled down with 3xMBT; UNC0638 in light SILAC media
row,Relative to UNC0638 UNC Light [log base 2],Molecule
1,−0.02,B1
2,1.14,B2
3,0.26,B3
4,0.17,B4

# Same assay, conditions: average of UNC Light and UNC Heavy experiments
row,Relative to UNC0638 Average [log base 2],Molecule
1,0.11,B1
2,0.53,B2
3,0.12,B3
4,0.11,B4
